Assay results reported in publication PMC11382572, “Structural and kinetic insights into the stereospecific oxidation of R-2,3-dihydroxypropanesulfonate by DHPS-3-dehydrogenase from Cupriavidus pinatubonensis” (Chemical Science, 2024).

Assays:
O=S(=O)(O)C[C@H](O)CO [1] = test: Michaelis-Menten kinetics (apparent KM); assay type: biochemical, Cupriavidus pinatubonensis; details: Zn2+, NAD+
O=S(=O)(O)C[C@H](O)CO [2] = test: purified protein; assay type: biochemical, Cupriavidus pinatubonensis; details: Zn2+

| Substance | Km (O=S(=O)(O)C[C@H](O)CO [1]) | kcat/Km (O=S(=O)(O)C[C@H](O)CO [1]) | Km (O=S(=O)(O)C[C@H](O)CO [2]) | kcat/Km (O=S(=O)(O)C[C@H](O)CO [2]; NADH active site, sulfonate and secondary hydroxyl groups participate in octahedral zinc coordination, occupancy […]) |
| --- | --- | --- | --- | --- |
| DHPS-3-dehydrogenase (CpHpsN) (Cupriavidus pinatubonensis JMP134; E318A) | 2800 ± 300 µM | 1.8 M⁻¹ s⁻¹ | – | – |
| DHPS-3-dehydrogenase (CpHpsN) (Cupriavidus pinatubonensis JMP134; H319A) | – | – | 1200 ± 300 µM | 3.1 M⁻¹ s⁻¹ |
